In patent US6514747B2 (UT-Battelle, LLC, priority 1993, dated 2003):
Where two headings read alike, the source gives them in different places.

What was measured:
Format in all cases: cell-based
[1] = biological target: T1, human TSH-receptor (Homo sapiens, UniProt P16473); assay: TSH-stimulated adenylyl cyclase in TSH-R-transfected 293 cells; conditions: agouti 0.7 nM
T1 construct: expressed in transfected cells; host or cells: 293 (human embryonic kidney) cells
Description: 293 cells (5×10^5) and 293 cells expressing human TSH-R were preloaded with 5 μCi ^3H-adenine for 1.5 h at 37° C. in a 5% CO2 incubator.
Medium was aspirated and 2.5% perchloric acid containing 0.1 mM cAMP was used to stop the incubation. Adenylyl cyclase activity was calculated by determining the percent conversion of ^3H-adenine to ^3H-cAMP as described (Salomon, 1991; Johnson and Salomon, 1991). Correlation of cAMP accumulation measured in this assay with actual adenylyl cyclase activity is made under the assumption that isobutymethylxanthine effectively blocks cAMP degradation. Data represent means and standard deviations from triplicate data points.

[2] = tested on: 3T3-L1 adipocytes; assay: lipogenesis in 3T3-L1 adipocytes (FAS and SCD mRNA, FAS activity, triglyceride content)
[3] = tested on: L6 skeletal myocytes; assay: [Ca2+]i in L6 skeletal myocytes (fura 2); conditions: for [Ca2+]i Increase over Baseline: 400 s, n = 8
[4] = biological target: T2, human melanocortin 1 receptor (hMC1R) (Homo sapiens, UniProt Q01726); assay: [Ca2+]i in HEK-293 cells transfected with hMC1R; conditions: FIG. 48, plateau at 400 s
T2 construct: The coding region of the human melanocortin 1, 3, and 5 receptor (hMC1R, hMC3R, and hMC5R) genes was amplified; expressed in transfected cells; host or cells: HEK-293 cells, cotransfected with pMT4 construct and pRSV-Neo, geneticin-selected clones
Description: The coding region of the human melanocortin 1, 3, and 5 receptor (hMC1R, hMC3R, and hMC5R) genes was amplified by polymerase chain reaction and subcloned into the vector pMT4, and the sequence was verified. HEK-293 cells, which appear to lack endogenous melanocortin receptors (Lu et al., 1994), were cotransfected with pMT4 and pRSV-Neo by either calcium phosphate coprecipitation method or the use of Transfectam reagent (Promega). Clones were selected using 600 μg geneticin/ml. culture medium.
[Ca^2+]i was measured in L6, A7r5, and HEK-293 cells (Zemel et al., 1995) as previously described and in 3T3-L1 cells as described by Klip and Ramlal (1987). Monolayers of nonfused L6 cells and confluent A7r5 cells after 14-16 h of starvation in a serum-free culture medium were rinsed with Hanks' balanced salt solution (HBSS), detached by incubation in 2 ml trypsin (0.05%) for 2-3 min at 37° C., and released by pipetting without trypsinization. Cells were harvested by centrifugation at 50 g and resuspended in 1 ml HBSS at a density of ˜10^6 cells/ml. For 3T3-L1 cells, monolayers of differentiated adipocytes were rinsed with serum-free DMEM and exposed to 0.05% trypsin for 3 min. The solution was decanted, and the cells were incubated for 3 min in culture medium. Cells were detached by pipetting and collected by centrifugation at 50 g. Cells were then incubated in culture medium to recover for 1 h followed by incubation in serum-free DMEM for 4 h at 37° C. in an atmosphere of 5% CO2, collected by centrifugation, and resuspended in HBSS at a density of ˜10^6 cells/ml. Cell suspensions were chilled on ice for 5 min and loaded with […] (final concn) fura 2 acetoxymethyl ester (AM; Sigma) in the dark for 20 min at 37° C. For 3T3-L1 adipocytes, the chilling step was skipped. […] [Ca^2+]i levels were then measured fluorometrically in suspensions using dual excitation (340 and 380 nm)-single emission (510 nm) fluorometry as previously described (Zemel et al., 1995). [Ca^2+]i was then calculated by the computer in the fluorometer with the equation of Grynkiewicz et al. (1985). […]

[5] = biological target: T3, human MSH-R (Homo sapiens, UniProt Q01726); assay: activation of human MSH-R in 293 cells (adenylyl cyclase); conditions: 0.7 nM agouti
T3 construct: expressed in transfected cells; host or cells: human embryonic kidney 293 cells (printed '292')

[6] = biological target: T4, human MC4-R (Homo sapiens, UniProt P32245); assay: α-MSH activation of human MC4-R in transfected 293 cells (adenylyl cyclase)
T4 construct: expressed in transfected cells; host or cells: 293 cells

[7] = biological target: T5, mouse MC5-R (Mus musculus, UniProt P41149); assay: α-MSH activation of mouse MC5-R in transfected 293 cells (adenylyl cyclase)
T5 construct: expressed in transfected cells; host or cells: 293 cells
T5 sequence (P41149 whole entry): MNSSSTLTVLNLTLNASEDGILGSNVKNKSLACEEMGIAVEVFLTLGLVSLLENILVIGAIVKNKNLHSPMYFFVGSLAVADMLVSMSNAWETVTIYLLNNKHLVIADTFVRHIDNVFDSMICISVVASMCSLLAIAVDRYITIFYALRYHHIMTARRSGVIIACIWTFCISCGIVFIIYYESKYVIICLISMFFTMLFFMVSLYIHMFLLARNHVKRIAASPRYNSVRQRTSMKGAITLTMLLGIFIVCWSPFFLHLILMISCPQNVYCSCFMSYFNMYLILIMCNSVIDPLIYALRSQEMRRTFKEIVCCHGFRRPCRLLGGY

T2 sequence (Q01726 whole entry): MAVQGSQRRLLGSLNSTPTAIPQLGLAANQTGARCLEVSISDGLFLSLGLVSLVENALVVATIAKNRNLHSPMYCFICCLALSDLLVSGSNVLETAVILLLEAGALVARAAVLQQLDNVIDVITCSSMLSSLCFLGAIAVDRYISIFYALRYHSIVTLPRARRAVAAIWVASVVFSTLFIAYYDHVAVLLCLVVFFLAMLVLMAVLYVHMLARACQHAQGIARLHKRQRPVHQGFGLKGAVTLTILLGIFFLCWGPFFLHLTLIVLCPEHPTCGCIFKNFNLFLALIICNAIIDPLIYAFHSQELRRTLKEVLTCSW
T3 sequence (Q01726 whole entry): as above
T1 sequence (P16473 21-764): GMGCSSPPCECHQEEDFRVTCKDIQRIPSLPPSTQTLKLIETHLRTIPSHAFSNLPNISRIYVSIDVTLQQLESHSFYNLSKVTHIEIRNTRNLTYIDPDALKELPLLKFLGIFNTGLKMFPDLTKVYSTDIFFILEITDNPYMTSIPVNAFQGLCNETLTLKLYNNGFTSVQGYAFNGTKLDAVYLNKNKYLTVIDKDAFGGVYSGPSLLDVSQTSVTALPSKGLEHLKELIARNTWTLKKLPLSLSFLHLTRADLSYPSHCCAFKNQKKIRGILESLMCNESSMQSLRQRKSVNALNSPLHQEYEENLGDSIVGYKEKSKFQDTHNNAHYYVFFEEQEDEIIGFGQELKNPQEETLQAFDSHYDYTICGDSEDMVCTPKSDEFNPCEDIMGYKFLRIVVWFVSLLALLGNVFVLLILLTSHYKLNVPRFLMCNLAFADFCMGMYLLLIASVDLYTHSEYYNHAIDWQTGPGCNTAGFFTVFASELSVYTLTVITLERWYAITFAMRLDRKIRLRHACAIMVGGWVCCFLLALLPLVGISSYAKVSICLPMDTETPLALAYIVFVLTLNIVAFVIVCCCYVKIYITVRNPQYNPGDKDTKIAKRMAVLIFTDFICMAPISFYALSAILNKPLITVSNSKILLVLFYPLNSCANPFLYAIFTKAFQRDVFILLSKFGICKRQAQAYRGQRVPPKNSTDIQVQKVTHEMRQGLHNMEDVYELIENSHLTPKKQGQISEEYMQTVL
T4 sequence (P32245 whole entry): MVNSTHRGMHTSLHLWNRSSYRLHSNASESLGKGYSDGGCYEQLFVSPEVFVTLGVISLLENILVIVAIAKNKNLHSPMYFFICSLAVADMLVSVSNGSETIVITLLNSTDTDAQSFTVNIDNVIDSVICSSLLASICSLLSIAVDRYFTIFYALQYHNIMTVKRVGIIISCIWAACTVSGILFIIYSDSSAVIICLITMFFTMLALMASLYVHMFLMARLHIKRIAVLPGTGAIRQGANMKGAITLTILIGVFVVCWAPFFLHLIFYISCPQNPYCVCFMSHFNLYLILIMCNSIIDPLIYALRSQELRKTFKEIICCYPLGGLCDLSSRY

B1: agouti: recombinant mouse agouti protein (131 amino acids, SEQ ID NO:2) produced with the baculovirus expression system in T. ni cells (protein, listed as Mus musculus)
chain: MDVTRLLLATLVSFLCFFTVHSHLALEETLGDDRSLRSNSSMNSLDFSSVSIVALNKKSKKISRKEAEKRKRSSKKKASMKKVARPPPPSPCVATRDSCKPPAPACCDPCASCQCRFFGSACTCRVLNPNC
For B1, the “effect on ability of TSH to bind its receptor and stimulate adenylyl cyclase” value [1] was “no effect”, the “increase in FAS mRNA levels” value ([2]; 48 h treatment) was 1.5 fold and the “increase in SCD mRNA levels” value ([2]; 48 h treatment) was 4 fold. For the same molecule, the cellular triglyceride content ([2]; agouti, 48 h) was 0.104±0.008 mg triglycerides/mg protein, the “[Ca2+]i Increase over Baseline” value ([3]; 5 nM Agouti) was 49 ± 8 nM and the “[Ca2+]i Increase over Baseline” value ([3]; 25 nM Agouti) was 32 ± 1 nM. For the same molecule, the “[Ca2+]i response” value ([3]; 50 nM agouti, no channel blocker) was 49 ± 8 nM, the “Vmax of [Ca2+]i dose-response fit” value ([3]; nonlinear least-squares, y=(Vmax·x)/(K+x)) was 123±15.63 and the EC50 ([3]; nonlinear least-squares, y=(Vmax·x)/(K+x), read-out: K of [Ca2+]i dose-response fit) was 62.1 ± 19.4 nM. The EC50 ([3]; response plateau at 400 s, read-out: apparent EC50 of [Ca2+]i response) was 62 ± 19 nM, the “Vmax of [Ca2+]i dose-response fit” value [4] was 108.2±1.337 and the EC50 ([4]; read-out: K of [Ca2+]i dose-response fit) was 18.4 ± 0.706 nM. For the same molecule, the “inhibition of MSH-R activation” value [5] was “No inhibition”, the “antagonism of α-MSH activation” value [6] was “potent antagonist” and the “antagonism of receptor activation” value ([7]; 100 nM agouti) was “unaffected”. The “antagonism of receptor activation” value ([7]; agouti 0.7 nM) was “did not antagonize”.
